Source: paper PMC6511843

Columns and labels:
HA.ELK-1 = experiment: EMSA; details: not given in material (EMSA as in ref 29; southwestern as in ref 34, modified)
ELK-mUBQ = experiment: southwestern; details: renatured on nitrocellulose; not given in material (EMSA as in ref 29; southwestern as in ref 34, modified)
ELK-1(K70R);coreSRF = experiment: EMSA; details: not given in material (EMSA as in ref 29; southwestern as in ref 34, modified)
HA.ELK-1;coreSRF = experiment: EMSA; details: not given in material (EMSA as in ref 29; southwestern as in ref 34, modified)
ELK-1(K35R);coreSRF = experiment: EMSA; details: not given in material (EMSA as in ref 29; southwestern as in ref 34, modified)

With E74 site the binding signal (% (reference)) (HA.ELK-1) was 100 and the binding signal (fold less than unmodified ELK-1) (ELK-mUBQ) was 4.

Substance CFOS SRE has a binding signal (% of WT ELK-1) (ELK-1(K70R);coreSRF) of 80, a binding signal (% (reference)) (HA.ELK-1;coreSRF) of 100 and a binding signal (% of WT ELK-1) (ELK-1(K35R);coreSRF) of 80.
